Source: PMC10248732
Where two headings read alike, the source gives them in different places.

Columns and labels:
[1] = target: T1, GST-OsLUX (Oryza sativa, UniProt Q94DH3 1-238); assay: EMSA
T1 sequence: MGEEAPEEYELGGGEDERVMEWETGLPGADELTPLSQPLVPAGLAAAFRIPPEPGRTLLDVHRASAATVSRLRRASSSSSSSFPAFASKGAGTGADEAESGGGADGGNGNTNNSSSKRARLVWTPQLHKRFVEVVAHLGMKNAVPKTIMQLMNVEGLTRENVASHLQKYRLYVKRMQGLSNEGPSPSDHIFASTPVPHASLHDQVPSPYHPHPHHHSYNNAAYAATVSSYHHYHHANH

[2] = target: T1, GST-OsLUX; assay: EMSA; remark: listed apart in the source

B1: Ghd7-P (LBS, 3 copies) (dsDNA)
DNA 1: CAGCACGAATCTTGAGCAGCACGAATCTTGAGCAGCACGAATCTTGAG
DNA 2: CTCAAGATTCGTGCTGCTCAAGATTCGTGCTGCTCAAGATTCGTGCTG
Q: Does B1 bind [1]?
A: binds

B2: Hd1-P (S4 LBS, 3 copies) (dsDNA)
DNA 1: CGCTGGATTCGACTTGCGCTGGATTCGACTTGCGCTGGATTCGACTTG
DNA 2: CAAGTCGAATCCAGCGCAAGTCGAATCCAGCGCAAGTCGAATCCAGCG
Q: Does B2 bind [2]?
A: binds
